Measurements taken from paper PMC3310290 (2012).
Positions of bridges follow the written chain, without caps; N, C: chain ends. No end group written: not given here. fluorescein = Fluorescein label on the N-terminus, attached via Aca

What was measured:
DD(E) DD(E) [1] = target: T1, DD(E) DD(E) (Homo sapiens, UniProt P02671); assay: FP displacement
T1 chain 1: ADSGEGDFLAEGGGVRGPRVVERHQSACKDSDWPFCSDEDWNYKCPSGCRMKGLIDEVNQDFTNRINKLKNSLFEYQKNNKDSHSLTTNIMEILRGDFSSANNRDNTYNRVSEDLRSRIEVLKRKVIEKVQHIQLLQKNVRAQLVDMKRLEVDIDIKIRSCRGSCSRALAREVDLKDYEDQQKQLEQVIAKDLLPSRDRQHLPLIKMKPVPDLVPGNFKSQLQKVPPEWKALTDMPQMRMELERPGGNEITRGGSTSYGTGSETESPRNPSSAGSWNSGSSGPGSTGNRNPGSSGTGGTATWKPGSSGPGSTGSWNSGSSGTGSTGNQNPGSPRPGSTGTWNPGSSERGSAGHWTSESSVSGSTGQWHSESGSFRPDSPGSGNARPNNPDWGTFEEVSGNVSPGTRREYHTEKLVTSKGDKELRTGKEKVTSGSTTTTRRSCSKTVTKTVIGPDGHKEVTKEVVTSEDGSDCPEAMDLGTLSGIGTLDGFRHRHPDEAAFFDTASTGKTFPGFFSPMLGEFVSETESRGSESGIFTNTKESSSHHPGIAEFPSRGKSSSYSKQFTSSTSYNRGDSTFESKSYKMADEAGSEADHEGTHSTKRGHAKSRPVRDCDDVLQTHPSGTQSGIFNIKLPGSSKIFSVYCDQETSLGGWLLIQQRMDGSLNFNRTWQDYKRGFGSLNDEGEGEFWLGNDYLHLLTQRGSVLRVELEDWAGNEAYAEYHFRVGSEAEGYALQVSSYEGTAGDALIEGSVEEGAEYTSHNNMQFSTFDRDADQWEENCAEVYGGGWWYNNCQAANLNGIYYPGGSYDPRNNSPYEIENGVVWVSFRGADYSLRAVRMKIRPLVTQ
T1 chain 2: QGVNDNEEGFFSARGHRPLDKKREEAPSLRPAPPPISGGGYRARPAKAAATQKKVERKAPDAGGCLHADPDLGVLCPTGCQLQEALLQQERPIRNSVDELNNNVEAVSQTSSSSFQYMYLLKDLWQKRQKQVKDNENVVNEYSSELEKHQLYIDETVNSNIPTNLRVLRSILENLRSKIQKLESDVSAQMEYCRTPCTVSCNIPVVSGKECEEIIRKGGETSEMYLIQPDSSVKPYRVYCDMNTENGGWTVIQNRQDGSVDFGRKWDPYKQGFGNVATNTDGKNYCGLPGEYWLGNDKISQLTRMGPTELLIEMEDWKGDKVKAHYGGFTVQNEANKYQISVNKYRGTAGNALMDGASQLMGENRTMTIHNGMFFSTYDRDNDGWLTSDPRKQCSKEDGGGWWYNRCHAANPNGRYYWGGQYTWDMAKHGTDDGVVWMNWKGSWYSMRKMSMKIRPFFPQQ
T1 chain 3: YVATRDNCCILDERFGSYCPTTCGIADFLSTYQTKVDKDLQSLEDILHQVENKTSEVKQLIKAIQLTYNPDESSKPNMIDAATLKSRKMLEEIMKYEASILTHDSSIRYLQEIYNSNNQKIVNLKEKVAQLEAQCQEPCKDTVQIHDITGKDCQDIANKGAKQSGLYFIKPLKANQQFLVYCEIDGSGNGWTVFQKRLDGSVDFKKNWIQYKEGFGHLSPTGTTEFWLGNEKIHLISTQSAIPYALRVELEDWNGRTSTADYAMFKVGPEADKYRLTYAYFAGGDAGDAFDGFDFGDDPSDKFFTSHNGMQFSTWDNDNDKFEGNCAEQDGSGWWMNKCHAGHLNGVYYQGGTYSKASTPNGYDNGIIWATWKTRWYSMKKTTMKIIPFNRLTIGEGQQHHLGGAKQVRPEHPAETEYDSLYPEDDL

DD(E) DD(E) [2] = target: T1, DD(E) DD(E); assay: fluorescence polarization
fibrinogen [3] = target: T2, fibrinogen (Homo sapiens, UniProt P02671); assay: fluorescence polarization
T2 chain 1: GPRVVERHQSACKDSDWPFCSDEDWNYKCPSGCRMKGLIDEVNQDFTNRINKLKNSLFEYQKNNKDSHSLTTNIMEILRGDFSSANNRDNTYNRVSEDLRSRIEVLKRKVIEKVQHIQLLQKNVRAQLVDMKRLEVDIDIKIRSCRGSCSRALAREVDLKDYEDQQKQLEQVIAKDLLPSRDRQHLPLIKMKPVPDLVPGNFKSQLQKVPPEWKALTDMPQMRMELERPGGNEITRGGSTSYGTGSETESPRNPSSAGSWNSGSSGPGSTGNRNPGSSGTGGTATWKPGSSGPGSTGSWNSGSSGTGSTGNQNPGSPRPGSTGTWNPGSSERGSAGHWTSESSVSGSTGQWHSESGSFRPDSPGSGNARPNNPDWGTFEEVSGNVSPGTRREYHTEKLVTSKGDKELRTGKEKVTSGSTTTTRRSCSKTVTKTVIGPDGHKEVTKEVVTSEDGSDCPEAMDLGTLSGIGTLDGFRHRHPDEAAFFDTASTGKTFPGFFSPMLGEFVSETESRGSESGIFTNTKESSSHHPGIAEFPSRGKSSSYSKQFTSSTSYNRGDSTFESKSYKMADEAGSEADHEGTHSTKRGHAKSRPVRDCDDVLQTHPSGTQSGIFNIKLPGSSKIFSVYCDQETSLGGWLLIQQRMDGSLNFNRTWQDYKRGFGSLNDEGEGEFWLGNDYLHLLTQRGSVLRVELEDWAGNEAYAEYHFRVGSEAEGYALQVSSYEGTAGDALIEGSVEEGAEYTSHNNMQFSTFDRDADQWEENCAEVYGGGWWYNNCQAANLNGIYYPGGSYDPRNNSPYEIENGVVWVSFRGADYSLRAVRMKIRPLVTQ
T2 chain 2: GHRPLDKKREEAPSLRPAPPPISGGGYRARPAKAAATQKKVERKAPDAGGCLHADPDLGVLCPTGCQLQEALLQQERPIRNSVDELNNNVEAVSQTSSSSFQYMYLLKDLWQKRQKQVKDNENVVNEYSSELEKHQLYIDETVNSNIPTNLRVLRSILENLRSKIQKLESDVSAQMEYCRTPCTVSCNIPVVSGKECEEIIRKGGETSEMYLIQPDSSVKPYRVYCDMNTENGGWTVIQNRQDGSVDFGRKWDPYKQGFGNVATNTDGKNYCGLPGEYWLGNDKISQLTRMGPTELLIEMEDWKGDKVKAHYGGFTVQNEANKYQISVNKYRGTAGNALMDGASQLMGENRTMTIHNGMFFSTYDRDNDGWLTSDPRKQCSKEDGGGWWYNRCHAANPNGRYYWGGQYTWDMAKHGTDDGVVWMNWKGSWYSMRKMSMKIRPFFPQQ
T2 chain 3: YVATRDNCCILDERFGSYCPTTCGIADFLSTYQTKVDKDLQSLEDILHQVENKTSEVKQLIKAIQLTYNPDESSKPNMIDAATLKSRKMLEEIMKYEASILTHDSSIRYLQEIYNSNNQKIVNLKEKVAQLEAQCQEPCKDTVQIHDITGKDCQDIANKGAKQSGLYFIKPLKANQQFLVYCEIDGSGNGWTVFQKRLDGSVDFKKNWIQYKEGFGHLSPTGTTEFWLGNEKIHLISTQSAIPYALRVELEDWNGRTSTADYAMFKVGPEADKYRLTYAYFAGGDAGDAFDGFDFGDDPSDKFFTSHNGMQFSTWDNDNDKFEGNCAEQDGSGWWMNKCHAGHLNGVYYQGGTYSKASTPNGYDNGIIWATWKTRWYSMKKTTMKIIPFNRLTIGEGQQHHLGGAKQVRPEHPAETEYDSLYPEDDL

fibrin = target: T3, fibrin (Homo sapiens, UniProt P02671); assay: fibrin plate depletion assay
T3 chain 1: ADSGEGDFLAEGGGVR
T3 chain 2: QGVNDNEEGFFSAR
T3 chain 3: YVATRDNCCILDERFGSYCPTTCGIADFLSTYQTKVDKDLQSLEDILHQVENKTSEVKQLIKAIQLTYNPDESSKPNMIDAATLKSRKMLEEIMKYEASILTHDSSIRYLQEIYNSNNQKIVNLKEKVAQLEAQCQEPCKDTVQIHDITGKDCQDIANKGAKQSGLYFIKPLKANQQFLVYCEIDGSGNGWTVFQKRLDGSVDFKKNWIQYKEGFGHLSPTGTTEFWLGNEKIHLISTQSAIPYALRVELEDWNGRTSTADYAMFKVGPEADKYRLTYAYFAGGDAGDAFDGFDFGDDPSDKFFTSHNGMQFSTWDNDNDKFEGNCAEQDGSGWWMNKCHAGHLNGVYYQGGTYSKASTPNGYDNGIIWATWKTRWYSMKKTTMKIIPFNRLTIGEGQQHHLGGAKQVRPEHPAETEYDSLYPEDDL

fibrinogen [4] = target: T2, fibrinogen; assay: ITC
fibrinogen [5] = target: T2, fibrinogen; assay: FP displacement

B1: Tn7-3a-Gd (peptide)
chain: LPCDYYGTCLD-NH2
modifications: disulfide 3-9; not fully specified (N-terminus); also: Gd(III) chelated by DTPA
**Q.** How did the Ki (DD(E) DD(E) [1]) turn out when B1 was run?
**A.** The Ki was 2.9 µM.

B2: Tn6-2b-Fl (peptide)
chain: {fluorescein-Aca}-QWECPYGLCWIQ
modifications: cysteine pairing not given here
**Q.** For B2, which Kd (DD(E) DD(E) [2]) is on record?
**A.** The Kd was 0.057 µM.

**Q.** And the Kd (fibrinogen [3])?
**A.** Its Kd is 22 µM.

B3: Tn6-1-Gd (peptide)
chain: GGWFHCPYDLCHIL-NH2
modifications: disulfide 6-11; not fully specified (N-terminus); also: Gd(III) chelated by DTPA
**Q.** How did the Kd (fibrin) turn out when B3 was run?
**A.** The Kd was 3.1 µM.

B4: Tn7-3 (peptide)
chain: LPCDYYGTCLD
**Q.** How did the Kd (fibrinogen [4]) turn out when B4 was run?
**A.** Its Kd is over 20 µM.

B5: Tn7-3b-Gd (peptide)
chain: GLPCDYYGTCLD-NH2
modifications: disulfide 4-10; not fully specified (N-terminus); also: Gd(III) chelated by DTPA
**Q.** B5 was tested. Which Kd (fibrin) did it give?
**A.** The Kd was 8.4 µM.

B6: Tn6-1 (peptide)
chain: WFHCPYDLCHIL
**Q.** How did the Kd (fibrinogen [5]) turn out when B6 was run?
**A.** Its Kd is over 200 µM.

B7: Tn6-2a (peptide)
chain: WECPYGLCWIQ
**Q.** Which results are given for B7?
**A.** Kd (fibrinogen [4]): > 50 µM; Kd (fibrin): 2.9 µM
